According to paper PMC8215294:
Substitutions are numbered along the chain they refer to. In names and notes the source's numbering stands. Several values for one entry are separate records, joined by “and”; a condition that tells them apart may be missing. Equal values may be shown once. Values belong to the molecule of their own block, whether it stands above or below them.

Columns and labels:
[1] = target: Arabidopsis thaliana thimet oligopeptidase TOP1, full-length (A. thaliana) (UniProt Q94AM1); assay: SEC; purified His-tagged TOPs treated 30 min at RT with DTTred, DTTox, GSH or GSSG, purified again and dialysed; XBridge BEH200A SEC column, 50 mM sodium phosphate, 150 mM NaCl, 0.02% NaN3, pH 7.0
[2] = target: T1, TOP1^C611A, Q94AM1; assay: size-exclusion chromatography (SEC), peak area quantification; details: chain shown with the change; treatment (Ctrl or GSSG) not stated for this panel; parent: est. 38; read off a plot
T1 chain: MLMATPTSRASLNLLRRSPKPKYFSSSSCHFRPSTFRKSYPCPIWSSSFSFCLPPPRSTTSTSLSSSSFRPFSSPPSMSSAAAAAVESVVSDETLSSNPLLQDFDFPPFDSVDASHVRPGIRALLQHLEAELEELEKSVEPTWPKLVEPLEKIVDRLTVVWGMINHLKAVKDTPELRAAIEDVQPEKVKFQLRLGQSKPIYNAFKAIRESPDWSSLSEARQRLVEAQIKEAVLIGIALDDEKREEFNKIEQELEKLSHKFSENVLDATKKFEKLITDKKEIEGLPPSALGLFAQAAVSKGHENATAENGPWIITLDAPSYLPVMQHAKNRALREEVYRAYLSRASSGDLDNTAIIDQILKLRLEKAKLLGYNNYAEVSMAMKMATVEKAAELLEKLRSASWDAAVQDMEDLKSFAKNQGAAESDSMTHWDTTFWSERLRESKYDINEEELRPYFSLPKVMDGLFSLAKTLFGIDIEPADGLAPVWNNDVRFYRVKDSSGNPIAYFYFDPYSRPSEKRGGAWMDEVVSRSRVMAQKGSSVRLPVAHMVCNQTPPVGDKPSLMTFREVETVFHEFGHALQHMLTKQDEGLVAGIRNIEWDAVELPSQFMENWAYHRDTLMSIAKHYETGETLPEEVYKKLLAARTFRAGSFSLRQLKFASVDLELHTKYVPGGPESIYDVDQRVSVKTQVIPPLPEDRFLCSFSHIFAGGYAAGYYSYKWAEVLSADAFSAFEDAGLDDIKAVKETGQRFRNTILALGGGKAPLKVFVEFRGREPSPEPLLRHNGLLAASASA

[3] = target: T2, TOP1^C699A, Q94AM1; assay: as above; details: chain shown with the change; treatment (Ctrl or GSSG) not stated for this panel; parent: est. 38; read off a plot
T2 chain: T1 chain with A611C, C699A

Molecule: Arabidopsis thaliana thimet oligopeptidase TOP1, full-length (from UniProt Q94AM1 83-791) (enzyme)
stoichiometry N [1]: 2 and 3

other: percent dimer [2]: 3.5%
B1: Arabidopsis thaliana thimet oligopeptidase TOP1, full-length, Q94AM1 C611A (protein)
chain: T1 chain

other: percent dimer [3]: 17%
B2: Arabidopsis thaliana thimet oligopeptidase TOP1, full-length, Q94AM1 C699A (protein)
chain: T1 chain with A611C, C699A
